From patent US9364516B2, “Treatment of fibrosis-related disorders using fibronectin binding proteins and polypeptides” (priority 2010, dated 2016)

Key:
[1] = test system: fibronectin matrix assembly; assay: Inhibition of fibronectin matrix assembly in cell culture; assay type: cell-based; conditions: cell culture experiments
[2] = target: fibronectin (Homo sapiens, UniProt P02751); conditions: cited from earlier work
[3] = test system: left carotid artery; assay: Detection of Texas-Red conjugated peptides in vessel wall; assay type: in vivo, mouse; conditions: Texas-Red conjugate 20 μM in pluronic gel, periadventitial
Experimental: FIGS. 8A-8E provide visualization of pUR4 in the vessel wall. Texas-Red (TR) conjugated pUR4 (20 μM) was embedded in pluronic gel and periadventitially delivered to the left carotid artery following ligation surgery as described infra. The right carotid artery from the same animal was used as a control. Mice were sacrificed 1, 3, and 7 days after surgery, and the carotid arteries were harvested and flash frozen. Longitudinal sections (20 μm) were immunostained with an anti-TR antibody. Representative images from the right common carotid artery (FIG. 8A), and left common carotid artery of 1 day (FIG. 8B), 3 day (FIG. 8C), and 7 day (FIG. 8D) animals are shown. The percentage area which is TR (+) (FIG. 8E) was assessed in the media of the vessels. Media=M; adventitia=Ad; lumen=L. Bar, 20 μm.
pUR4 and III-11C were conjugated to Texas-Red, as per the manufacturer's instructions (Molecular Probes/Invitrogen). 20 μM Texas-Red (TR) conjugated proteins were embedded in pluronic gel and applied to the vessel following ligation surgery. […] For quantitatively evaluating the efficacy of peptide delivery to the common carotid artery, 15-18 fields of view in the media from 2-3 mice at each time point were analyzed. The TR (+) areas were quantitated using an automated programmed segmentation procedure in ImagePro. The percentage of TR (+) area to the total medial area was determined.

Chain of fibronectin (P02751 32-2477): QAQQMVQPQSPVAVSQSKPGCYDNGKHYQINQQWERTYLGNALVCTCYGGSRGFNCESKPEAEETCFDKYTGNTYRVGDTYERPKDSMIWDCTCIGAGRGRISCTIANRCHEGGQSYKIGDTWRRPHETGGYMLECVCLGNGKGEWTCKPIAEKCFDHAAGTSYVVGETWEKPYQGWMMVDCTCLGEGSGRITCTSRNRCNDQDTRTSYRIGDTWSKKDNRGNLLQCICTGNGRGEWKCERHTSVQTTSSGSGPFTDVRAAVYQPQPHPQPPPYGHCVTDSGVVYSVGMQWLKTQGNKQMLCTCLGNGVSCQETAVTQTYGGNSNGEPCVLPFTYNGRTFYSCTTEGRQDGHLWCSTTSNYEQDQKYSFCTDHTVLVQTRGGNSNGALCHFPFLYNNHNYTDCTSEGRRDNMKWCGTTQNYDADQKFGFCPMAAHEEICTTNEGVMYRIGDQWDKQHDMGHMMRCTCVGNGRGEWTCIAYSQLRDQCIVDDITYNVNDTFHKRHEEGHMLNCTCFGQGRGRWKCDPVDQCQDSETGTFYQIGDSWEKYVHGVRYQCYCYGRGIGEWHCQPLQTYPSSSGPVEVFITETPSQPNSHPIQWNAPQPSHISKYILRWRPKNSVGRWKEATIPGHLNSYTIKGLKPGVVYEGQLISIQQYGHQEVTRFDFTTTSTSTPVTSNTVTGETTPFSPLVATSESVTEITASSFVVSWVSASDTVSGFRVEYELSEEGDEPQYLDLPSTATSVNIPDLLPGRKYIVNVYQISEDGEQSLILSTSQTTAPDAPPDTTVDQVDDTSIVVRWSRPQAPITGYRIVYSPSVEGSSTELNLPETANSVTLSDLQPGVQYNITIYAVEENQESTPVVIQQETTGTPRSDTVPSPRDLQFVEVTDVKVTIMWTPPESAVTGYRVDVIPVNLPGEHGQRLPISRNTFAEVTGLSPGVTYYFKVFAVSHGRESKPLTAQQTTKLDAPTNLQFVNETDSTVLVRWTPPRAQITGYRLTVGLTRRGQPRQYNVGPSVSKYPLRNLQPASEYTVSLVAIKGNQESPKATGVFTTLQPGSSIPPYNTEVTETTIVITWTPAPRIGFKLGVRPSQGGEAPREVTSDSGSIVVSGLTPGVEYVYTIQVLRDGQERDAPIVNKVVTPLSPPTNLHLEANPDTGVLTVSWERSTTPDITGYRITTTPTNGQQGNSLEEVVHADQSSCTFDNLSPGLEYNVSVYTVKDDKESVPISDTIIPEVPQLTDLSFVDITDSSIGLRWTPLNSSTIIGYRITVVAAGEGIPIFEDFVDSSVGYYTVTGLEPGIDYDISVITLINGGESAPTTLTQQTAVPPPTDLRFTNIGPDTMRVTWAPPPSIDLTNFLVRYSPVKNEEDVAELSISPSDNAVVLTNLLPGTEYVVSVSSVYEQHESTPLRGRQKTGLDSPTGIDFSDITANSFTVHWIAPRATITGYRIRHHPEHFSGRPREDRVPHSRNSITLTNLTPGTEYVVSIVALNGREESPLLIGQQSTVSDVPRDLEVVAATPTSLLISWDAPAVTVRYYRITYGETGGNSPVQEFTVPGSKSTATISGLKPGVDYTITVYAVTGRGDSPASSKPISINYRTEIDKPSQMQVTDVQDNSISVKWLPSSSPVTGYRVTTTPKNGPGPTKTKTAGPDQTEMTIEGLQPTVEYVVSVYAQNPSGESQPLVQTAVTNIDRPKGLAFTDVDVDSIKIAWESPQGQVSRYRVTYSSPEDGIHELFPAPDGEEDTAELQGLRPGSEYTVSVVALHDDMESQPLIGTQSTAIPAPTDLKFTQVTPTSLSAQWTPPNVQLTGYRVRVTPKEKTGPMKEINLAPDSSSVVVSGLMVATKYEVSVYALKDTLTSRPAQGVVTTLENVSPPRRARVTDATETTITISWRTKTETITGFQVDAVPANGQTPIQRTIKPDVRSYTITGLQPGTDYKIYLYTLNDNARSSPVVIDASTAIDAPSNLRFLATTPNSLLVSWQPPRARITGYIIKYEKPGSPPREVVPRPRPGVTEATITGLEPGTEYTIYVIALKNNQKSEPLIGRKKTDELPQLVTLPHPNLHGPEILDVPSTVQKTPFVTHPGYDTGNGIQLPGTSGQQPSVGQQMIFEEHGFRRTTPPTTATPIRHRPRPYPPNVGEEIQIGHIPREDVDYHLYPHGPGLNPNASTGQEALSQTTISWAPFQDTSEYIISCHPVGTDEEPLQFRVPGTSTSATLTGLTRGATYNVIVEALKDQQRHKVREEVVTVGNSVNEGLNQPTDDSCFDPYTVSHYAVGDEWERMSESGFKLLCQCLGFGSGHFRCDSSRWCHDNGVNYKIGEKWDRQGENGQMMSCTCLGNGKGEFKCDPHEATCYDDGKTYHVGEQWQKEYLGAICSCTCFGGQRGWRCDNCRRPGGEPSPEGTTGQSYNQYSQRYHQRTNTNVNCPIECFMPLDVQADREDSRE

B1: pUR4: 49-mer peptide derived from the bacterial F1 adhesin, His tagged, SEQ ID NO:1; class I fibronectin polymerization inhibitor (peptide)
chain: MRGSHHHHHHGSKDQSPLAGESGETEYITEVYGNQQNPVDIDKKLPNETGFSGNMVETEDTKLN
modifications: His tag; Bacterial adhesin derived peptide pUR4
concentration effective at inhibiting fibronectin matrix assembly [1]: 50 to 100 nM | binding to fibronectin [2]: binds | peptide detected in the vessel wall (media and adventitia) ([3]; 1 to 3 days after application): readily detected | levels of the peptide in the vessel wall by day 7 ([3]; day 7): significantly reduced
